The values that follow come from patent publication US20110014209A1 (MACFARLANE BURNET INSTITUTE FOR MEDICAL RESEARCH AND PUBLIC …, published 2011).

The chains are these.
B5: CD81 MBP-LEL containing the F186S mutation (receptor)
chain: FVNKDQIAKDVKQFYDQALQQAVVDDDANNAKAVVKTFHETLDCCGSSTLTALTTSVLKNNLCPSGSNIISNLSKEDCHQKIDDLFSGK

Assay [1] addresses B5. Briefly: MBP-LEL ELISA, H53 detection. Background: An ELISA detects its analyte on a solid surface through an enzyme-linked reagent.
The target in assay [2] is T1, CD81 MBP-LEL (maltose-binding protein fused to the CD81 large extracellular loop, residues 113-201) (human, UniProt P60033 113-201).
T1 construct: range 113-201
T1 sequence: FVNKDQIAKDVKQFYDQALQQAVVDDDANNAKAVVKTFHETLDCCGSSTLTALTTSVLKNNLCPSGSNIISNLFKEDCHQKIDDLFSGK
Kind of assay: CD81 MBP-LEL ELISA, purified E2-his proteins, H53 detection.

Assay [3] has as its target T1, CD81 MBP-LEL (maltose-binding protein …). Briefly: CD81 MBP-LEL solid-phase assay, intracellular E2.
In another assay the target is E2Δ12-his mature protein (hepatitis C virus H77c, UniProt P27958 409-661). Kind of assay: MBP-LEL ELISA, H53 detection.

B1: E2Δ3-his mature protein (other)
chain: ETHVTGGNAGRTTAGLVGLLTPGAKQNIQLINTNGSWHINSTALNCNESLNTGWLAGLFYQHKFNSSGCPERLASCRRLTDFAQGWGPISYANGSGLDERPYCWHYPPRPCGIVPAKSVCGPVYCFTPSPVVVGTTDRSGAPTYSWGANDTDVFVLNNTRPPLGNWFGCTWMNSTGFTKVCGAPPCGSSGCPTDCFRKHPEATYSRCGSGPWITPRCMVDYPYRLWHYPCTINYTIFKVRMYVGGVEHRLEAACNWTRGERCDLEDRDRSEHHHHHH
As for B1, the binding result in assay [1] is “no binding”; in assay [2] it was “binds”.

B2: E2Δ23-his mature protein (other)
chain: ETHVTGGNAGRTTAGLVGLLTPGAKQNIQLINTNGSWHINSTALNCNESLNTGWLAGLFYQHKFNSSGCPERLASCGSSGCWHYPPRPCGIVPAKSVCGPVYCFTPSPVVVGTTDRSGAPTYSWGANDTDVFVLNNTRPPLGNWFGCTWMNSTGFTKVCGAPPCGSSGCPTDCFRKHPEATYSRCGSGPWITPRCMVDYPYRLWHYPCTINYTIFKVRMYVGGVEHRLEAACNWTRGERCDLEDRDRSEHHHHHH
Regarding B2, the binding result in assay [1] is given as “no binding”; in assay [2], “binds”.

B3: E2-his mature protein (wild type, residues 384-661, strain H77c) (other)
chain: ETHVTGGNAGRTTAGLVGLLTPGAKQNIQLINTNGSWHINSTALNCNESLNTGWLAGLFYQHKFNSSGCPERLASCRRLTDFAQGWGPISYANGSGLDERPYCWHYPPRPCGIVPAKSVCGPVYCFTPSPVVVGTTDRSGAPTYSWGANDTDVFVLNNTRPPLGNWFGCTWMNSTGFTKVCGAPPCVIGGVGNNTLLCPTDCFRKHPEATYSRCGSGPWITPRCMVDYPYRLWHYPCTINYTIFKVRMYVGGVEHRLEAACNWTRGERCDLEDRDRSEHHHHHH
On to B3, for which the binding result in assay [1] is on record as “no binding”; in assay [2], “binds”.

B4: E2 glycoprotein expressed from pE1E2 Δ23 (HVR2 and igVR deletions) (other)
chain: ETHVTGGNAGRTTAGLVGLLTPGAKQNIQLINTNGSWHINSTALNCNESLNTGWLAGLFYQHKFNSSGCPERLASCGSSGCWHYPPRPCGIVPAKSVCGPVYCFTPSPVVVGTTDRSGAPTYSWGANDTDVFVLNNTRPPLGNWFGCTWMNSTGFTKVCGAPPCGSSGCPTDCFRKHPEATYSRCGSGPWITPRCMVDYPYRLWHYPCTINYTIFKVRMYVGGVEHRLEAACNWTRGERCDLEDRDRSELSPLLLSTTQWQVLPCSFTTLPALSTGLIHLHQNIVDVQYLYGVGSSIASWAIKWEYVVLLFLLLADARVCSCLWMMLLISQAEA
notes: also called HVR2+igVR
Consider B4, for which the binding result in assay [3] is “binds”.
As for B5, the binding result with E2Δ12-his mature protein is given as “no binding”.

B6: E2Δ2-his mature protein (other)
chain: ETHVTGGNAGRTTAGLVGLLTPGAKQNIQLINTNGSWHINSTALNCNESLNTGWLAGLFYQHKFNSSGCPERLASCGSSGCWHYPPRPCGIVPAKSVCGPVYCFTPSPVVVGTTDRSGAPTYSWGANDTDVFVLNNTRPPLGNWFGCTWMNSTGFTKVCGAPPCVIGGVGNNTLLCPTDCFRKHPEATYSRCGSGPWITPRCMVDYPYRLWHYPCTINYTIFKVRMYVGGVEHRLEAACNWTRGERCDLEDRDRSEHHHHHH
In the case of B6, the binding result in assay [1] is recorded as “no binding”.
